Test results published in US6664090B1, “Carboxylesterase nucleic acid molecules, proteins and uses thereof” (Heska Corporation, priority 1996, dated 2003).

Key:
[1] = juvenile hormone esterase (JHE) activity assay, hydrolysis of 3H-juvenile hormone to juvenile hormone acid; type: biochemical; conditions: purified recombinant protein from S. frugiperda:pVL-nfE91600 supernatant, size exclusion fractions
Procedure: Unlabeled juvenile hormone (JH; available from ICN Biomedicals, Inc., Aurora, Ohio) was diluted in hexane to concentration of about 0.025 M. Labeled 10-^3H-juvenile hormone (^3H-JH; available from Dupont-NEN) was diluted in hexane to concentration of about 80,000 cpm/μl. A JH substrate mixture was prepared by mixing about 20 μl of unlabeled JH with about 80 μl of ^3H-JH (about 5 μCi) in a 4 ml screw cap vial. The substrate mixture was then covered with nitrogen (i.e., “blanketed”) and the solvent contained in the mixture was evaporated by heating the mixture at 35° C. When just dry, about 1 ml of absolute anhydrous ethanol (final concentration 5×10^−4 M, or 6400 cpm/μl) was added to the vial. The substrate mixture was then stored at −20° C.
About 5 equivalents of each tissue (about 5 μl of protein) was added into the bottom of a small glass autosampler vial. About 95 μl of Tris-buffered saline (TBS) was added to each vial to bring the final volume in each vial to about 100 μl. Two control samples were also prepared by adding 100 μl TBS to two separate vials. […]
To measure labeled juvenile hormone acid, about 250 μl isooctane was added to each vial. […] The amount of ^3H-juvenile hormone acid contained in each vial was determined using a Beckman LS-1801 liquid scintillation counter (available from Beckman, Fullerton, Calif.).

[2] = general carboxylesterase (CE) activity assay, hydrolysis of α-napthyl acetate, Fast Blue, 590 nm; type: biochemical; conditions: purified recombinant protein from S. frugiperda:pVL-nfE91600 supernatant, size exclusion fractions
Procedure: Tissue samples and soluble extracts were prepared as described above in Example 1, except not labelled, from unfed (UF) and bovine blood-fed 1st instar flea larvae, bovine blood-fed 3rd instar flea larvae, bovine blood-fed prepupal flea larvae, unfed whole adult fleas, cat blood-fed adult (ACF) whole fleas, cat blood-fed adult fleas that have had their heads and midguts removed (referred to herein as fed adult partial fleas), unfed adult flea midguts and cat blood-fed adult flea midguts. About 5 tissue equivalents of each tissue were assayed for general CE activity using the following method. Tissue samples of about 5 μl were added to separate wells of flat-bottomed microtiter plate (available from Becton Dickinson, Lincoln Park, N.J.). A control well was prepared by adding about 5 μl of Tris buffer to an empty well of the plate. About 95 μl of 25 mM Tris-HCl (pH 8.0) was then added to each sample to increase the volume in each well to about 100 μl. About 100 μl of 0.25 mM α-napthyl acetate (available from Sigma, St. Louis, Mo.) dissolved in 25 mM Tris-HCl (pH 8.0) was then added to each well. […]
The microtiter plate was then analyzed using a Cambridge Technology, Inc. (Watertown, Pa.) model 7500 Microplate Reader set to 590 nm. The absorbance value for the control sample was subtracted from absorbance values of experimental samples, such that the background value was zero.

B1: PfE9528: full-length flea esterase protein of about 528 amino acids, SEQ ID NO:37, encoded by nfE92007 (protein, listed as Ctenocephalides felis)
chain: MADLQVTLLQGTLKGKEQISEKGNVFHSYSGIPYAKPPVGDLRFKPPQPAEPWSGVLDASKEGNSCRSVHFIKKIKVGAEDCLYLNVYVPKTSEKSLLPVMVWIHGGGFFMGSGNSDMYGPEYLMDYGIVLVTFNYRLGVLGFLNLGIEEAPGNVGLMDQVEALKWVKNNIASFGGDPNNVTIFGESAGGASVHYLMLSDLSKGLFHKAISQSGSAFNPWALQHDNNKENAFRLCKLLGHPVDNETEALKILRQAPIDDLIDNRIKPKDKGQLIIDYPFLPTIEKRYQNFEPFLDQSPLSKMQSGNFTKVPFICGYNSAEGILGLMDFKDDPNIFEKFEADFERFVPVDLNLTLRSKESKKLAEEMRKFYYQDEPVSSDNKEKFVSVISDTWFLRGIKNTARYIIEHSSEPLYLYVYSFDDFGFLKKLVLDPNIEGAAHGDELGYLFKMSFTEFPKDLPSAVVNRERLLQLWTNFAKTGNPTPEINDVITTKWDKATEEKSDHMDIDNTLRMIPDPDAKRLRFWNKFL
juvenile hormone esterase activity [1]: juvenile hormone esterase activity
carboxylesterase activity [2]: carboxylesterase activity
